Patent US20150190489A1 (ONCOTHERAPY SCIENCE, published 2015)

Target: T1, HLA-DR15 (DRB1*15:02) (human)
T1 construct: whole, on cells; Expressed on mouse fibroblast L-cells (L-DR15) or on donor APCs; also called L-DR15
Experiment: concluded from IFN-gamma ELISPOT with peptide-pulsed L-DR15 cells and HLA-blocking mAbs; no direct binding assay
Protocol: The immune response of Th cells to APCs pulsed with peptides and proteins were assessed by IFN-gamma ELISPOT assays (Human IFN-gamma ELISPOT kit, BD Biosciences) as described previously (Tomita Y, et al. Cancer Sci; 102: 697-705.). Briefly, the frequency of peptide-specific CD4⁺ T cells producing IFN-gamma per 3×10⁴ bulk CD4⁺ T cells upon stimulation with peptide-pulsed PBMCs (3×10⁴), or 1×10⁴ bulk CD4⁺ T cells upon stimulation with peptide-pulsed L-cells (5×10⁴/well) expressing HLA-DR was analyzed. The frequency of cells producing IFN-gamma per 1×10⁵ CTLs upon stimulation with peptide-pulsed T2 cells (2×10⁴/well) or C1R-A2402 cells (2×10⁴/well) was also analyzed. Alternatively, 5×10³ protein-loaded DCs were co-cultured with 2×10⁴ CD4⁺ T cell clones/well. The protein-loaded mature DCs were prepared from positively isolated CD14⁺ cells (day 0) as described previously (Harao M, et al. Int J Cancer 2008; 123: 2616-25.). On day 5, the DCs were cultured in the presence of the recombinant KIF20A (50 micro-g/ml) and OK432. The protein-loaded mature DCs were harvested on day 7, washed and used as stimulator in IFN-gamma ELISPOT assays. […]

binding result: binds
B1: KIF20A (60-84) (peptide)
peptide: DSMEKVKVYLRVRPLLPSELERQED
notes: Synthetic long peptide (purity >90%), pulsed on PBMCs, DCs or L-cell transfectants; also called KIF20A (60-84) LP; KIF20A (60-84) peptide
